The test deals with T1, CBP-Full-HAT, full-catalytic domain of murine CBP (1096-1700), 6 His-tagged (murine, UniProt P45481 1096-1700).
T1 construct: also called CBP core catalytic domain; source: recombinant, purified
T1 sequence (looked up): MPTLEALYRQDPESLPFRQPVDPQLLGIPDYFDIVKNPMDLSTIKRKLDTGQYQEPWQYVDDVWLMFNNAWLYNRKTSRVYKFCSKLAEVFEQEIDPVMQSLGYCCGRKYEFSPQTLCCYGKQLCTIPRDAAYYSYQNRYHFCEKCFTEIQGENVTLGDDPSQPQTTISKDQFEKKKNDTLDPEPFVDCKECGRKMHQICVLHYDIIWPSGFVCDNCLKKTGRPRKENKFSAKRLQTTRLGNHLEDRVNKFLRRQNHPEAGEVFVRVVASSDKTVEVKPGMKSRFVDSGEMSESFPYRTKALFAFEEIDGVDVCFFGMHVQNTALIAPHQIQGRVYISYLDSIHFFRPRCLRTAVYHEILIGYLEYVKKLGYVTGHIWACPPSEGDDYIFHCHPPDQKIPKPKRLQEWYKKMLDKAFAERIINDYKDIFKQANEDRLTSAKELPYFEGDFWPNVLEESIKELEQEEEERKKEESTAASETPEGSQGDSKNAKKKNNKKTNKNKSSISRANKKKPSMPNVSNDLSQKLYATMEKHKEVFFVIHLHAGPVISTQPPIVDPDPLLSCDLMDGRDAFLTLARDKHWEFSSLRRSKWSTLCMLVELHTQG
As to the kind of experiment: BLI; Octet Red; biotinylated recombinant HSF2 immobilised at 100 nM on streptavidin biosensors in PBS; analytes diluted in PBS at 100 nM, association 600 s; Kd with a 1:1 stoichiometry model, global fit with Rmax unlinked by sensor. The settings on record: both partners purified. A general note: BLI is a label-free optical method that tracks binding on a fibre tip over time.

B1: biotinylated recombinant full-length HSF2 (recHSF2) (natural protein, UniProt Q03933 1-536, looked up)
chain: MKQSSNVPAFLSKLWTLVEETHTNEFITWSQNGQSFLVLDEQRFAKEILPKYFKHNNMASFVRQLNMYGFRKVVHIDSGIVKQERDGPVEFQHPYFKQGQDDLLENIKRKVSSSKPEENKIRQEDLTKIISSAQKVQIKQETIESRLSELKSENESLWKEVSELRAKHAQQQQVIRKIVQFIVTLVQNNQLVSLKRKRPLLLNTNGAQKKNLFQHIVKEPTDNHHHKVPHSRTEGLKPRERISDDIIIYDVTDDNADEENIPVIPETNEDVISDPSNCSQYPDIVIVEDDNEDEYAPVIQSGEQNEPARESLSSGSDGSSPLMSSAVQLNGSSSLTSEDPVTMMDSILNDNINLLGKVELLDYLDSIDCSLEDFQAMLSGRQFSIDPDLLVDLFTSSVQMNPTDYINNTKSENKGLETTKNNVVQPVSEEGRKSKSKPDKQLIQYTAFPLLAFLDGNPASSVEQASTTASSEVLSSVDKPIEVDELLDSSLDPEPTQSKLVRLEPLTEAEASEATLFYLCELAPAPLDSDMPLLDS
modifications: biotinylated with EZ-Link NHS-PEG4-Biotin at a molar ratio biotin/protein (3:1)
notes: heat-shock factor 2, recombinant full-length protein, catalogue TP310751; also called recombinant HSF2; source: bought: Origen (TP310751)
For orientation: Kd means a measure of binding affinity in units of concentration. Regarding B1, the Kd came to 1 nM.

Values taken from publication PMC9668993, “CBP-HSF2 structural and functional interplay in Rubinstein-Taybi neurodevelopmental disorder” (Nature Communications, 2022).
